In the nanobody polyreactivity screen of Harvey et al. (2022):

Assay: yeast display, Sf9 membrane polyspecificity reagent, FACS + sequencing; frameworks hold sequencing errors
How it was run: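 Nanobodies from a synthetic yeast display library (Saccharomyces cerevisiae BJ5465), induced 36–48 hours with galactose, were stained 1 hour at 4 °C with 10% biotinylated, detergent-solubilized Sf9 membrane reagent, enriched on streptavidin microbeads, then FACS-sorted. Anti-HA (expression) and streptavidin (reagent binding) fluorescence set low and high (top ~1%) gates. Polyreactivity labels come from the gate of origin. Genes were colony-PCR amplified, MiSeq 2 × 250 sequenced and filtered by CDR length.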

| Sequence | polyreactivity (PSR sort gate) |
| --- | --- |
| QVQLVESGGGLVQAGCSLRLSCAASGFIFTSYAMGWYRQAPGKERDLVAAITRSGGRTYYADSVKGRFTISLDNAKITVYLQMNSLKPEDTAVYYCAAVTFYQSPARGYWGQGTQVTVSS | high polyreactivity |
| QVQLVESGGGLVQAGCSLRLSCAASGFTFAGNAMGWYRQAPGKERELVAAISRRGGSTYYADSVKGRFTISRDNAKNTVYLKMNSLKPEDNAVYYCAAVYRYDYDYWGQGNQVTVSS | high polyreactivity |
| QVQLVESGGGLVQAGCSLRLSCAASGFTYARYTMGWYRQAPGKERELVAAISSRGSSTYYADSVKGRFTISRDNAKNSVYLQMNCLKPEDTAVYYCAAPPRYGYDYWGQGTQVTVSS | high polyreactivity |
| QVQLVESGGGLVQAGCSLRLSCAASGIIFGYYAMGWYRQAPVKERELVAAISSRGSRTYYSDSLKGRFTISRDNAKNTVYLQMNSLIPEDTAVYYCAVRGKFDYWGQGTQVTVSS | high polyreactivity |
| QVQLVESGGGLVQAGCSLRLSCAASGITVYDYDMGWYRQAPGKERELVAAITWNGGSTYYADSVKGRFTISRDNAKNTVYLQMNSLKPEDTAVYYCAAESYYIYDYWGQGTQVTVSS | high polyreactivity |
| QVQLVESGGGLVQAGCSLRLSCAASGLIFLPYAMGWYIQAPGKERELVAAINFSTGSTHYADSVKGRFTISRDNAKNTVFLQMNSLKPEDTAVYYCAVYTSQIYGYWGQGTQVNVSS | high polyreactivity |
| QVQLVESGGGLVQAGCSLRLSCAASGLTFAKYAMGWYRHAPGKEWELVAAISRSGGSTYYADSVKGRFTISRDNAKNTVYLQMNSLKPEDTAVYYCAKSSGTLWITKYDYWGQGTQVTVSS | low polyreactivity |
| QVQLVESGGGLVQAGCSLRLSCAASGLTFHWYTMGWYRQAPGKERELVATINSGGSTDYADSVKGRFTISRDNAKNTVYLQMNSLKPEDTAVYYCNAEYGYSGVGDDYWGQGTQVTVSS | low polyreactivity |
| QVQLVESGGGLVQAGCSLRLSCAASGRIFRLNAMGWYRQAPGKERELVAAISSSGGSTYYADSVKGRFTISRDNAKNTVYLQMNSLKPEDTAVSYCAKYPVGGYDYWGQGPQVTVSS | low polyreactivity |
| QVQLVESGGGLVQAGCSLRLSCAASGRIFYTYAMGWYRQAPAKEREFVAGIRWSGSSTYYADSVMGRFRISRDNAKYTVYFQMLSMKPEDTAVYYCAKRYVWGDKRYWQGYDYWGQGNQVTVSS | high polyreactivity |
| QVQLVESGGGLVQAGCSLRLSCAASGRTFPYYAMGWYRQAPGKERELVARIRSDGSTNYADSVKGRFTISRDNAKNTVYLQMNSLKPEDTAVYYCTADVGFEPPWYDWSWDNEYWGQGTQVSVSS | low polyreactivity |
| QVQLVESGGGLVQAGCSLRLSCAASGRTFVHYTMGWYRQAPGKERELVATISTSGGSTSYADSVKGRFTISRDNAKNTVYLQMNSLKPEDTAVYYCAARWYFPDRVKYDYWGQGTQVTVSS | low polyreactivity |
| QVQLVESGGGLVQAGCSLRLSCAASGRTFVWYEMGWYRQATGKERELVAAINKRGTSTYYADSVKGRFTISRDNAKNTVYLQMNSLNPEVTAVYYCAVEYIYWFHSRSSYIYDYWGQGTQVTVSS | low polyreactivity |
| QVQLVESGGGLVQAGCSLRLSCAASGRTIGYYAMGLYRPAPGKERELVAAISTRGGRTSYADSVKGRFTISRDNAKYTVYFQMNSLKPEDTAVYYCAADGVRVHKDPTGHYYWGQGTQVTVSS | high polyreactivity |
| QVQLVESGGGLVQAGCSLRLSCAASGSIFAAYPMGWYRQAPGKERELVAAISRSCGSTYYADSVKGRFTISRDNAKNTVYLQMNSLKPEDTAVYYCAADTYGYRHDNYDYWGQGTQVTVSS | low polyreactivity |
| QVQLVESGGGLVQAGCSLRLSCAASGSIFPCNAMGWYRQAPGKERELVAAISRGCSTNYADSVKGRFTISRDNAKNTDYLQMNSLKPEDTSVFDCAVYYYSYHGGRGYDYWGQGTQVTVSS | high polyreactivity |
| QVQLVESGGGLVQAGCSLRLSCAASGSIFRVYAMGWYRQAPGKEREFVAAITRSGGSTYYADSVKGRFTISRDNAKNTVYLQMNSLKPEDTAVYYCNAVYYSWAQSARFDYWGQGTQVTVSS | low polyreactivity |
| QVQLVESGGGLVQAGCSLRLSCAASGSIFSAYSMGWYRPAPGKEREFVAAITRRGGNTYYADSVKGRFTISRDNAKNTVYLQMKSLKPEDTAVYYCAASYNGLWHGDYDYWGQGTQVTVSS | low polyreactivity |
| QVQLVESGGGLVQAGCSLRLSCAASGSIFYSNAMGWYRQAPGKERELVAAITRRGGSTYYADSVKGRFTISRDNAKNTVYLQMNSLKPEDTAVYYCYADGSARTPYYYRWYRYGYWGQGTQVSVSS | high polyreactivity |
| QVQLVESGGGLVQAGCSLRLSCAASGSTFFPNGMGWYRQAPGKERELVAAITQDGGSTYYADSVKGRFTISRDNAKNTVYLQMNSLKPEDTAVYYCAASAGPYYEYGYWGQGTQVTVSS | low polyreactivity |
| QVQLVESGGGLVQAGCSLRLSCAASGSTFFRYAMGWYRQAPGKERELVAAITSGGNTYYADSVKGRFTISRDNAKITVYLQMNSMKPEDTAVYYCAADVYHWIHEYDYWGQGTQVSVSS | low polyreactivity |
| QVQLVESGGGLVQAGCSLRLSCAASGSTFRKYAMGWYRQAPGKEREFVAAITWSTGTTYYADSVKGRFTISRDNAKNTVYLQMNSLKPEDTAVYYFAADSQPPHELYESIEHESWGQGTQVTVSS | low polyreactivity |

| Sequence | polyreactivity (PSR sort gate) |
| --- | --- |
| QVQLVESGGGLVQAGCSLRLSCAASGSTFRSYAMGWYRQAPGKERELVASISGDGDSTYYADSVKGRFTISRDNAKNTVYLQMNSLKPEDTAVYYCNKGLHNGEVDYDYWGQGTQVTVSS | low polyreactivity |
| QVQLVESGGGLVQAGCSLRLSCAASGSTFWFNGMGWYRQAPGKERELVAVITFSTGSTSYADSVKGRFTISRDDAKNTVYLQMNSLKAEDTAGYYCAAEYVIYYCFEWLDLDYWGQGTQVTVSS | high polyreactivity |
| QVQLVESGGGLVQAGCSLRLSCAASGYMGWYRQAPGKERELVATISGSGGSTYYADSVKGRFTISRDNAKNTVYLQMNSLKPEDTAVYYCTTEIWGVNRSGYDYWGQGTQVTVSS | low polyreactivity |
| QVQLVESGGGLVQAGCSLRLSCAASGYTSRRNVMGWYRQAPGNERELVAAINSAGSTTYADSVKGRFTISRVNAKNTVYLQMNSLKPEDTAVYYCAASVYTYNYDLHKSYYLGQGTQVTVSS | high polyreactivity |
| QVQLVESGGGLVQAGCSLRLSCASSGRTFSEYAMGWYRQAPGKERELVAAISKGGGSTYYADSVKGRCTISRDNAKNTVYLQMNSLKPEDNAVYYCAKSSHAREYYYWGQGTQVTVSS | low polyreactivity |
| QVQLVESGGGLVQAGCSLRLSCASSGSTFEYYAKGRYRQAPGKERELGAAINGIGGSTTYADSVKGRFTISRDNAKNNVYFQMNSLKPEDTAVYYCNADVARSNSQASAYDYWGQGTQVTVSS | low polyreactivity |
| QVQLVESGGGLVQAGCSLRLSCDASGSIYKYYSMGWYRQAPGKERELVAAISKNGGSTYYADSVKGRFTISRDNAKYTVYLQMNSLKPEDTAVYYCAAEEGYRWVRYNYWGQGTQVTVSS | high polyreactivity |
| QVQLVESGGGLVQAGCSLRLSSAASGSIFWVNAMGWYRQAPGQERELVAAITWSAGSTYYADSVKGRFTISRDNAKYTVYVEMNSLKPEDTAVYYCAAGGAWYYWTLDYWGLGTQVTVSS | low polyreactivity |
| QVQLVESGGGLVQAGCSLRLSSAASGSTFRANAMGWYRQAPGKERELVAAITSGGSTNYADSVKGRFTISRDNAKNTVYLQMNRRKPEDTAVYYCADESYQEHSFYVYYGYDYWGQGTQVTVSS | low polyreactivity |
| QVQLVESGGGLVQAGCSLRLSWAASGRTFFSNAMGWYRQAPGKERELVAAISNGDNTYYADSVKGRFTISRDNAKNTVYLQMNSLKPEDTAVYYCAKDYRWVWRKYGYWGQGTQVTVSS | low polyreactivity |
| QVQLVESGGGLVQAGGCLRLSCAASGFTFKTYAMGWYRQAPGKEREFVAAITTRVGSTYYADSVKGRFSISRDNAKNTVYLQMISLKPEDTAVYYCNYNFNYPYYRYGYWGQGTQVTVSS | high polyreactivity |
| QVQLVESGGGLVQAGGCLRLSCAASGSSFGYNGMGWYSQAPGKEREVVAAISSGGNTYYGDSVNGRFTISRDNAKNTVYLQMNSLKPEDTAVYYCNADYVASGYDFDEGYWGQGTQVTVST | low polyreactivity |
| QVQLVESGGGLVQAGGCLRLSCDASGITFDYYAMGWYRQAPVKESELVAAITNDGRTYNADSVKGRFTISLDNAKNTVYLQMNSLKPEDTADYYCARLTYYVNGRYDYWGQGTQVTVSS | low polyreactivity |
| QVQLVESGGGLVQAGGGLRLSCAACGSIFVYYVMGWYRQAPGKERELVAAINSDGDGTYYADSVKGRFTISRDNAKNTVYLQMNSLKPEDTAVYYCNALNPKSYDYWGQGTQVTVSS | low polyreactivity |
| QVQLVESGGGLVQAGGGLRLSCAASGRIFFYAMGWYRQAPGKQRELVAAISWSGGSTYYADSVKGRFTISRDNAKNTVYLQMNSLKPEDTAVYYCAADYEGWGYDYRGDYWGQGTQLTVSS | low polyreactivity |
| QVQLVESGGGLVQAGGGLRLSCAASGRTFYIYAMGWYRQAPGKERELVAAISWRGGSTYYADSVKGRFTISRDNAKNTGYLQMNSLKPEDTAVYYCAKVYARTVGWFNYWGQGTQVTVSS | high polyreactivity |
| QVQLVESGGGLVQAGGGLRLSCAASGSILPEYAMGWYRQAPGKERELVAAITTSGGSTYYADSVKGRFTISRDNAKNTVYLQMNSLKPEDTAVYYCAVEYLVYLDYTYDYWGQGTQVTVSS | low polyreactivity |
| QVQLVESGGGLVQAGGGLRLSCAASGTFKRNAMGWYRQAPGKERELVATITRTGSTTYADSVKGRFTISRDNAKNTVYLQMNSLKPEDTAVYYCNRVTKEYGLRQYYYWGQGTQVTVSS | low polyreactivity |
| QVQLVESGGGLVQAGGGLRLSCAASGTFKRNAMGWYRQAPGKERELVATITRTGSTTYADSVKGRFTISRDNAMNTVYLQMYSQKPEDTAVYYCAAGYPPEDPEDYWGQGTQVTVSS | low polyreactivity |
| QVQLVESGGGLVQAGGILRISCAASGRTSYWYAMAWYRQAPGKERELVADISWSGGSTYYADSVKGRFTISRDNAKNTVYLQMNSLNPEDTAVYYCIGAEQKYSIYYAFDTGPYDYWGQGTQVTVSS | low polyreactivity |
| QVQLVESGGGLVQAGGILRISCAASGSTFGWYTMGWYRQAPGKERELVAAITSRGTRTSYADSVTGRFTISRDIAKNTVYLQMNSLKTEDTAVYYCAARVFRGLGEYYWGQGTQVTVSS | high polyreactivity |
